The record followed here is PMC4695338.

Holding throughout (assay): EMSA
What all share (conditions): EMSA: fluorescein-12 ssRNA incubated with MBP-tagged proteins, agarose gel; buffer, salt, pH and temperature not in the material
(Mobility shift assays separate free from complexed probe on a gel.)

In data set [1] the test system is Pdd1p MIM22+Ins6K_FL (Tetrahymena (species not given)).
Data set [2] deals with Pdd1p WT_FL (Tetrahymena (species not given)).
The subject of data set [3] is Pdd1p WT_HNG1 (hinge region 1) (Tetrahymena (species not given)).
The subject of data set [4] is Pdd1p MIM14_FL (Tetrahymena (species not given)).
Data set [5] concerns Pdd1p WT_HNG2 (hinge region 2) (Tetrahymena (species not given)).

pKd: −log10 of the molar value. Some results are limits rather than exact numbers.

On to EGFP ssRNA, for which the pKd (as a rule, the negative decadic logarithm of the Kd, by convention in mol/L) in data set [1] was 6.46; in data set [2] it was 7.19; in data set [3], 6.89; in data set [4] it was 6.47; in data set [5], less than 6.20.
